Patent US10731143B2, “Methods and compositions for stabilizing trans-splicing intein modified proteases” (AGRIVIDA, INC., priority 2014, dated 2020)

B1: Savinase: extracellular alkaline protease from Bacillus lentus (Uniprot P29600), SEQ ID NO: 6; Novozymes stock, intein unmodified reference enzyme (protein, listed as Bacillus lentus)
chain: MKKPLGKIVASTALLISVAFSSSIASAAEEAKEKYLIGFNEQEAVSEFVEQVEANDEVAILSEEEEVEIELLHEFETIPVLSVELSPEDVDALELDPAISYIEEDAEVTTMAQSVPWGISRVQAPAAHNRGLTGSGVKVAVLDTGISTHPDLNIRGGASFVPGEPSTQDGNGHGTHVAGTIAALNNSIGVLGVAPSAELYAVKVLGASGSGSVSSIAQGLEWAGNNGMHVANLSLGSPSPSATLEQAVNSATSRGVLVVAASGNSGAGSISYPARYANAMAVGATDQNNNRASFSQYGAGLDIVAPGVNVQSTYPGSTYASLNGTSMATPHVAGAAALVKQKNPSWSNVQIRNHLKNTATSLGSTNLYGSGLVNAEAATR
modifications: (1)..(380) Savinase P29600

What was measured:
[1] = Formulation protocols and long term stability in 60% Detergent-1 under accelerated ageing; type: physicochemical; details: 1M KCl, sequential mixing of NI and IC into 60% Detergent-1
Procedure: FIG. 12 illustrates comparison of alternative protocols to detergent formulate NI and IC and evaluated formulations for long term stability. Two formulation protocols as follows were compared: 1) formulation by sequential mixing of unsalted NI and IC to the detergent (detergent+NI+IC) and 2) formulation of KCl stabilized (NI+IC) premix to detergent. Detergent-1 was used at 60% (v/v) in two formats, either without supplement (−), or KCl supplement was added to 1M final concentration (+). Purified NI and IC were each used at benchmarking conc. to 1% (v/v) Savinase, at 38.1 μmolar concentration each. (NI+IC) premix was prepared and formulated to the detergent essentially as described in Example 7. Formulations were stored at 37° C. under accelerated ageing conditions and storage stabilities were tested by assaying retention of dilution inducible iProtease activity over 8 weeks at t=0, 1, 3, 6 and 8 weeks in storage. Dilution inducible activity was assayed in sequential dilutions to assay buffer, from 40- to 5120-fold dilutions as described in Example 7. iProtease activities at the 2 min time point reads of the 1:1280-fold dilutions were normalized to dilution induced iProtease activity of the (NI+IC) premix in detergent without salt at t=0 and were plotted.

[2] = Stability of dilution inducible protease activity in three detergents under accelerated ageing; type: physicochemical; details: Savinase without the stabilizer (dialyzed), 37° C., up to 4 weeks
Procedure: Detergents were: Detergent-1, Detergent-2 and Detergent-3. For benchmarking 1% (v/v) Savinase was used, but instead of formulating the inhibitor stabilized form, the inhibitor was first removed by three steps of overnight dialysis of 0.5 mL Savinase against 5 L mTSB buffer at 4° C. using a Tube-O-Dialyzer Medi (4000 Da; GBiosciences). Volume of dialyzed Savinase in mTSB were adjusted to 1.5 mL, and 3 μL dialyzed aliquot treated with equal volume of 4M KCL was used to formulate 100 μL detergent to get 1% (v/v) of the Savinase. Sample handling was essentially the same as in Example 8, except that formulations were made to 65% detergents supplemented with KCL to 1M final conc.
Purified NI and IC were used at equimolar conc. to 1% (v/v) dialyzed Savinase, at […] concentration each. (NI+IC) premix in 2M KCl was prepared as described in Example 7, and formulations were made to 65% detergents supplemented with KCl to 1M final conc.
Detergent formulations were stored under accelerated ageing conditions at 37° C. Residual protease activities were assayed at five time points, at t=0, 1, 2, 3, and 4 weeks, in serial dilutions to assay buffer as described before. The 2 min reads of 1:2560-fold dilutions of each formulation was normalized to the t=0 as 100% and graphed. […]

[3] = Stability of stain removal activity in three detergents under accelerated ageing; details: 37° C., up to 4 weeks, normalized to t=0
Procedure: Formulations made for Example 15 were stored under accelerated ageing conditions at 37° C., and were evaluated for stain removal activity at five time points, at t=0, 1, 2, 3, and 4 weeks in storage.
The blood/milk/ink stained fabric of EMPA 117 was used in wash tests as described in Example 15. FIG. 17 illustrates stain removal stability under accelerated ageing conditions in three detergents. Three replicate washes were performed from each formulation at each time point. Referring to this figure, white light reflectance of the washed EMPA117 fabrics were normalized to their corresponding t=0 samples and were graphed.

[4] = Suppression of protease activity in Detergent-1 formulations; type: biochemical; details: formulations in Detergent-1
[5] = Protease activity of KCl stabilized (NI+IC) premix and Savinase assayed in KCl; type: biochemical; details: formulated to 1M KCl aqueous buffer, diluted in KCl
Procedure: iProtease activity was benchmarked to 1% (v/v) Savinase. Formulation of (NI+IC) and Savinase to 1M KCl aqueous buffer was the same as in Example 1, but enzyme activity was assayed in 2M KCl as follows: In a clear flat-bottomed half-volume 96 well plate, row A wells were preloaded with […] pH˜9.0, 50 μl 4 M KCl, and 35 μL H2O. Rows B-H were preloaded with 5 μl 1×BR buffer pH˜9.0, 25 μL 4 M KCl, and 20 μL H2O. 5 μl (NI+IC) formulation was added to row A, mixed by pipetting, then 50 μL of this 20× diluted sample was added to the 50 μl salt, buffer, and water in row B and mixed. […] This process of 2× serial dilutions was repeated for rows C-H. All samples were diluted an addition 2× by adding 50 μL 500 μM suc-FAAF-pNA (in 20% DMSO) substrate, yielding samples diluted from 40× in row A to 5120× in row H. Protease activity was assayed by reading absorbance at 400 nm at 30° C. FIGS. 9A-9B illustrate that KCl stabilized (NI+IC) premix has no enzyme activity. FIG. 9A illustrates iProtease activity of the 80-fold diluted (NI+IC) premix. […].

| Molecule | boost of dilution inducible iProtease activity by supplementing the detergent [1] | loss of initial enzyme activity [2] | stain removal activity after storage [3] | effect of Detergent-1 on protease activity [4] | effect of 1M KCl on protease activity [5] |
| --- | --- | --- | --- | --- | --- |
| [Cl-].[K+] [KCl, potassium chloride] | approximately 3 fold |  |  |  |  |
| B1 |  | 25-70% | full stain removal activity | did not suppress | did not inhibit protease activity |
